Experimental data reported in PMC10450677, “CD44 acts as a coreceptor for cell-specific enhancement of signaling and regulatory T cell induction by TGM1, a parasite TGF-β mimic” (Proceedings of the National Academy of Sciences of the …, 2023).

T1: TGM1 full-length (D1/2/3/4/5), aa 19-422 (Heligmosomoides polygyrus, UniProt A0A2D1LW19 19-422, 125I (chloramine T) in the cross-linking assays; biotin (EZ-Link Sulfo-NHS-LC-Biotin) in the pull-downs; Alexa Fluor 488 in flow cytometry; no label named for ITC)
T1 construct: TGF-β mimic TGM1, Heligmosomoides polygyrus, GenBank MG099712 (422-aa protein), aa 19-422, omitting the parasite-encoded signal peptide; also called TGM1-FL; FL; source: HEK293 (pSecTag2A), purified (HiTrap nickel chelating, Superdex 75 as needed)
T1 sequence: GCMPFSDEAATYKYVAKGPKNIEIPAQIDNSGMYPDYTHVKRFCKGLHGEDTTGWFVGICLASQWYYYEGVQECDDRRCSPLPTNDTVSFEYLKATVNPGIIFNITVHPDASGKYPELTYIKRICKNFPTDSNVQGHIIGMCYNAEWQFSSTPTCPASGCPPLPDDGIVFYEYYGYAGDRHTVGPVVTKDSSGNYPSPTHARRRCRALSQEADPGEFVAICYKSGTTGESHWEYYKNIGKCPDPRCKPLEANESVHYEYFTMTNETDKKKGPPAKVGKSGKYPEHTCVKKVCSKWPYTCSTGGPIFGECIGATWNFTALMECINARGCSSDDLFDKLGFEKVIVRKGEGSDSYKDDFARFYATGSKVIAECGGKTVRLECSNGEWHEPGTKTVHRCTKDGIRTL

T2: TGM1 D4/5 (domains 4 and 5) (Heligmosomoides polygyrus, UniProt A0A2D1LW19 1-422, 125I (chloramine T) in the cross-linking assays; biotin (EZ-Link Sulfo-NHS-LC-Biotin) in the pull-downs; Alexa Fluor 488 in flow cytometry; no label named for ITC)
T2 construct: TGM1, Heligmosomoides polygyrus, GenBank MG099712, domains 4 and 5; D1/2/3 ends at aa 262 and the protein at aa 422; also called TGM1-D4/5-biotin; source: recombinant, purified
T2 sequence: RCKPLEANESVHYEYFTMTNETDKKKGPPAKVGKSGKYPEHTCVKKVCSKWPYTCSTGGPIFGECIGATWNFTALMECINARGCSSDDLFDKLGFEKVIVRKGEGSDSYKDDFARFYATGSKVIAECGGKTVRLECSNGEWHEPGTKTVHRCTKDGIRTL

B1: mouse CD44 hyaluronan binding domain, aa 23-174 (domain or fragment, UniProt P15379 23-174, looked up)
chain: QIDLNVTCRYAGVFHVEKNGRYSISRTEAADLCQAFNSTLPTMDQMKLALSKGFETCRYGFIEGNVVIPRIHPNAICAANHTGVYILVTSNTSHYDTYCFNASAPPEEDCTSVTDLPNSFDGPVTITIVNRDGTRYSKKGEYRTHQEDIDAS
notes: also called mCD44; murine CD44; source: HEK293 (pcDNA3.1+), purified (HiTrap nickel chelating, Superdex 75 as needed)
B2: human CD44 hyaluronan binding domain, aa 21-169 (domain or fragment, UniProt P16070 21-169, looked up)
chain: QIDLNITCRFAGVFHVEKNGRYSISRTEAADLCKAFNSTLPTMAQMEKALSIGFETCRYGFIEGHVVIPRIHPNSICAANNTGVYILTSNTSQYDTYCFNASAPPEEDCTSVTDLPNAFDGPITITIVNRDGTRYVQKGEYRTNPEDIY
notes: also called hCD44; source: HEK293 (pcDNA3.1+), purified (HiTrap nickel chelating, Superdex 75 as needed)

Assays:
[1] = target: T1, TGM1 full-length (D1/2/3/4/5), aa 19-422; assay: ITC; CD44 in the syringe, TGM1 protein in the cell; 25 mM sodium phosphate, 50 mM NaCl, pH 6.0, 35 °C; 1:1 binding model, global fit of two replicates; settings: both partners purified
[2] = target: T2, TGM1 D4/5 (domains 4 and 5); assay: as above; settings: both partners purified

Row | Binder | Kd [1] [nM] | dH [1] [kcal/mol] | stoichiometry N [1] | Kd [2] [nM] | dH [2] [kcal/mol] | stoichiometry N [2]
1 | B1 | 64 | -17.5 | 0.8 | 62 | -19.4 | 1.4
2 | B2 | 92 | -10.3 | 1.2 | 140 | -9.6 | 1.2
